In the Human Domainome abundance scans (Beltran et al. 2025):

B1: Gamma-crystallin D, residues 90 to 170; numbered along this chain, P07320 (parent)
chain: IRLYEREDYRGQMIEFTEDCSCLQDRFRFNEIHSLNVLEGSWVLYELSNYRGRQYLLMPGDYRRYQDWGATNARVGSLRRV

Variants of: B1
Assay: abundance fitness (aPCA) (normalised: wild type 0, dead -1); higher = more abundant; growth selection in yeast, the domain comes from the species named
Details: Homo sapiens

Abundance fitness of substitutions, site by site:
R64: F 0.04 | A -0.019 | K -0.287 | D 0.167 | C -0.141 | Q -0.031 | W 0.095 | V -0.044 | Y 0.035 | M -0.11 | E -0.226 | T 0.063 | G -0.017 | N 0.159 | P -0.423
R63: W 0.031 | P -0.012 | T 0.039 | S -0.037 | Q 0.072 | N -0.079
G76: K -0.112 | D -0.068 | H 0.11 | E 0.008 | M 0.111 | Y -0.221 | T -0.109 | N -0.125 | S -0.027 | R 0.024 | C -0.287 | A 0.011 | W -0.441
A73: W 0.123 | D 0.104 | T 0.126 | R 0.121 | G 0.004 | L 0.067 | E -0.012 | S -0.023 | C 0.005 | H 0.151 | Q 0.09 | Y 0.003 | V 0.066 | M 0.156 | F -0.173 | P -0.175 | N 0.05
T71: C 0.008 | F -0.044 | A 0.029 | H 0.05 | Y -0.201 | I 0.043 | N 0.054 | P -0.049 | L 0.04 | G -0.014 | K -0.003 | M -0.125 | W 0.001 | V -0.103
S77: R -1.01 | P -1.04 | E -0.868 | K -0.654 | D -1.03 | G -0.367 | C -0.28 | T -0.921 | V -1.13 | A -0.168 | Q -1.05 | F -0.879 | L -0.819 | W -1.01
R74: C 0.012 | W -0.029 | L -0.002 | K -0.134 | A -0.015 | Q -0.02 | N 0.098 | S -0.011 | Y -0.092 | V 0.028 | E 0.132 | P 0.005 | M -0.224 | F -0.023 | G -0.011 | D 0.018
L78: I 0.061 | R -0.893 | P -0.708 | K -1.12 | H -0.426 | S -0.38 | E -0.873 | Q -0.908 | W -0.011 | C 0.157 | M 0.126 | G -0.565
Q66: F -0.004 | R -0.06 | V -0.038 | W 0.018 | K 0.269 | G 0.038 | D -0.14 | P -0.016 | S 0.018 | T -0.073 | N -0.074 | H 0.108 | E -0.022 | M -0.048 | C -0.067
W68: V 0.087 | Y -0.163 | T 0.149 | N -0.117 | P -0.067 | A 0.043 | R 0.093 | M 0.15 | F 0.194 | D 0.062 | K 0.16 | I 0.116 | Q -0.355 | L 0.164
Y65: G 0.159 | E 0.192 | W 0.005 | Q -0.028 | S 0.041 | L 0.093 | M 0.089 | C -0.144 | D 0.044 | A -0.093 | I 0.053 | T -0.076 | K -0.113 | F -0.174 | H 0.099 | N 0.096 | V -0.047 | P 0.051
N72: C -0.078 | F 0.118 | M 0.131 | V 0.065 | G -0.001 | L 0.149 | D -0.016 | R 0.026 | K -0.065 | H -0.083 | I 0.21 | W 0.233 | S 0.051
